Paper PMC3432114

Columns and labels:
[1] = molecular target: N-methyl-D-aspartate receptor (NMDAR) of C44 murine erythroleukaemia (MEL) cell membranes (mouse (endogenous in C44 MEL cells)) (UniProt P35438)
RAGE (Homo sapiens) = RAGE (Homo sapiens) (UniProt Q15109); conditions: cited from earlier work
Chain of UniProt Q15109 (Q15109 23-404): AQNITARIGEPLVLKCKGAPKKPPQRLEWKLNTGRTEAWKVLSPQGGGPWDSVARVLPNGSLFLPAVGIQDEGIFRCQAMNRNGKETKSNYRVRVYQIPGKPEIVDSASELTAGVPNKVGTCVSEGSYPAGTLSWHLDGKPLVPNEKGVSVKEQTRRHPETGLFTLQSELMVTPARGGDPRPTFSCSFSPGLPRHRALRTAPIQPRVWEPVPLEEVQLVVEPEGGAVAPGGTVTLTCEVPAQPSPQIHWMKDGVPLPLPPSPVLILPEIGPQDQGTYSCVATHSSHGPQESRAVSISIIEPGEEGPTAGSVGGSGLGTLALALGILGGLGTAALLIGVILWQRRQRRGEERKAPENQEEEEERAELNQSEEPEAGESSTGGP

Chain of HMGB1 (P09429 whole entry): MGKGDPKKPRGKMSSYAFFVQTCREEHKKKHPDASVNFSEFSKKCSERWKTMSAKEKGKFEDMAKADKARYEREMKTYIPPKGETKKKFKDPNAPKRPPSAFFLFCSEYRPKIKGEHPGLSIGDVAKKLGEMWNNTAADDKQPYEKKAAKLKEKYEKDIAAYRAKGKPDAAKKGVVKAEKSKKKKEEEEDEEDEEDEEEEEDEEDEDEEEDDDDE

Substance	percent of differentiated (benzidine-positive) MEL cells after 24 h with HMBA and 250 pM HMGB1 (6% with HMBA alone; the increase abolished by MK-801 and antagonized by CGS 19755) [1] [%]	Kd (RAGE (Homo sapiens)) [nM]
high mobility group box 1 (HMGB1) protein, eukaryotic recombinant (from UniProt P63159 1-215) (natural protein)	12	
HMGB1 (from UniProt P09429)		10
